Paper PMC5386341 (Blood Cancer Journal, 2017)

Key:
cynomolgus monkey CD47 [1] = molecular target: T1, cynomolgus monkey CD47 (Macaca fascicularis, UniProt A0A2K5X4I2); experiment: not stated; binding affinity of IgG2σ mAbs to human and cynomolgus monkey CD47; method is described only in the Supplementary section
T1 construct: CD47, cynomolgus monkey; also called cyno CD47

human CD47 [2] = molecular target: T2, human CD47 (human, UniProt Q08722); experiment: as above
T2 construct: CD47, human; the methods are in the Supplementary section; also called integrin-associated protein

human CD47 [3] = molecular target: T3, human CD47 (human, UniProt Q08722); experiment: not stated; binding affinity of IgG2σ mAbs to human and cyno CD47; the method stands in the Supplementary Information, not shown
T3 construct: CD47, human; The crystal structures used the human CD47 extracellular domain with a C15G mutation; also called integrin-associated protein

cynomolgus monkey CD47 [4] = molecular target: T4, cynomolgus monkey CD47 (Macaca fascicularis, UniProt A0A2K5X4I2); experiment: as above
T4 construct: CD47, cynomolgus monkey; also called cyno CD47

Binder | Kd (cynomolgus monkey CD47 [1]) [pM] | Kd (human CD47 [2]) [pM] | Kd (human CD47 [3]) [pM] | Kd (cynomolgus monkey CD47 [4]) [pM]
IgG2σ C47B161 (antibody, V domains shown, Human IgG2σ (effector function silent Fc)) VH: QVQLVQSGAEVKKPGASVKVSCKASGYTFTDYNMHWVRQAPGQRLEWMGDIYPYNGGTGYNQKFKGRVTITRDTSASTAYMELSSLRSEDTAVYYCARGGWHAMDSWGQGTLVTVSS VL: DIVMTQSPLSLPVTPGEPASISCRSRQSIVHTNRYTYLAWYLQKPGQSPQLLIYKVSNRFSGVPDRFSGSGSGTDFTLKISRVEAEDVGVYYCFQGSHVPYTFGGGTKLEIK | 2960 | 2870 | – | –
IgG2σ C47B222 (antibody, V domains shown, Human IgG2σ (effector function silent Fc)) VH: EVQLVQSGAEVKKPGESLKISCKGSGYSFTDYWIGWVRQMPGKGLEWMGIIYPGDSDTRYSPSFQGQVTISADKSISTAYLQWSSLKASDTAVYYCARVGRFASHQLDYWGQGTLVTVSS VL: EIVLTQSPATLSLSPGERATLSCRASQSVNNRLAWYQQKPGQAPRLLIHWASTRAIGIPARFSGSGSGTDFTLTISSLEPEDFAVYYCQQGASWPFTFGQGTKVEIK | 840 | 1120 | – | –
anti-CD47 mAb B6H12.2 engineered with the human IgG2σ Fc (antibody, V domains shown, heavy chain of B6H12.2 with a human IgG2σ Fc; light chain of B6H12.2; also called IgG2σ B6H12.2) VH: EVKLVESGGDLVKPGGSLKLSCAASGFTFSGYGMSWVRQTPDKRLEWVATITSGGTYTYYPDSVKGRFTISRDNAKNTLYLQIDSLKSEDTAIYFCARSLAGNAMDYWGQGTSVTVSS VL: DIVMTQSPATLSVTPGDRVSLSCRASQTISDYLHWYQQKSHESPRLLIKFASQSISGIPSRFSGSGSGSDFTLSINSVEPEDVGVYYCQNGHGFPRTFGGGTKLEIK | – | – | 500 | 600
